# Data taken from US20170355757A1 (Regeneron, published 2017).
# T1: monkey C5-mmh (monkey, UniProt P01031 19-1676 (human entry), limits assumed)
# T1 construct: recombinant, with C-terminal myc-myc-hexahistidine tag
# T1 chain: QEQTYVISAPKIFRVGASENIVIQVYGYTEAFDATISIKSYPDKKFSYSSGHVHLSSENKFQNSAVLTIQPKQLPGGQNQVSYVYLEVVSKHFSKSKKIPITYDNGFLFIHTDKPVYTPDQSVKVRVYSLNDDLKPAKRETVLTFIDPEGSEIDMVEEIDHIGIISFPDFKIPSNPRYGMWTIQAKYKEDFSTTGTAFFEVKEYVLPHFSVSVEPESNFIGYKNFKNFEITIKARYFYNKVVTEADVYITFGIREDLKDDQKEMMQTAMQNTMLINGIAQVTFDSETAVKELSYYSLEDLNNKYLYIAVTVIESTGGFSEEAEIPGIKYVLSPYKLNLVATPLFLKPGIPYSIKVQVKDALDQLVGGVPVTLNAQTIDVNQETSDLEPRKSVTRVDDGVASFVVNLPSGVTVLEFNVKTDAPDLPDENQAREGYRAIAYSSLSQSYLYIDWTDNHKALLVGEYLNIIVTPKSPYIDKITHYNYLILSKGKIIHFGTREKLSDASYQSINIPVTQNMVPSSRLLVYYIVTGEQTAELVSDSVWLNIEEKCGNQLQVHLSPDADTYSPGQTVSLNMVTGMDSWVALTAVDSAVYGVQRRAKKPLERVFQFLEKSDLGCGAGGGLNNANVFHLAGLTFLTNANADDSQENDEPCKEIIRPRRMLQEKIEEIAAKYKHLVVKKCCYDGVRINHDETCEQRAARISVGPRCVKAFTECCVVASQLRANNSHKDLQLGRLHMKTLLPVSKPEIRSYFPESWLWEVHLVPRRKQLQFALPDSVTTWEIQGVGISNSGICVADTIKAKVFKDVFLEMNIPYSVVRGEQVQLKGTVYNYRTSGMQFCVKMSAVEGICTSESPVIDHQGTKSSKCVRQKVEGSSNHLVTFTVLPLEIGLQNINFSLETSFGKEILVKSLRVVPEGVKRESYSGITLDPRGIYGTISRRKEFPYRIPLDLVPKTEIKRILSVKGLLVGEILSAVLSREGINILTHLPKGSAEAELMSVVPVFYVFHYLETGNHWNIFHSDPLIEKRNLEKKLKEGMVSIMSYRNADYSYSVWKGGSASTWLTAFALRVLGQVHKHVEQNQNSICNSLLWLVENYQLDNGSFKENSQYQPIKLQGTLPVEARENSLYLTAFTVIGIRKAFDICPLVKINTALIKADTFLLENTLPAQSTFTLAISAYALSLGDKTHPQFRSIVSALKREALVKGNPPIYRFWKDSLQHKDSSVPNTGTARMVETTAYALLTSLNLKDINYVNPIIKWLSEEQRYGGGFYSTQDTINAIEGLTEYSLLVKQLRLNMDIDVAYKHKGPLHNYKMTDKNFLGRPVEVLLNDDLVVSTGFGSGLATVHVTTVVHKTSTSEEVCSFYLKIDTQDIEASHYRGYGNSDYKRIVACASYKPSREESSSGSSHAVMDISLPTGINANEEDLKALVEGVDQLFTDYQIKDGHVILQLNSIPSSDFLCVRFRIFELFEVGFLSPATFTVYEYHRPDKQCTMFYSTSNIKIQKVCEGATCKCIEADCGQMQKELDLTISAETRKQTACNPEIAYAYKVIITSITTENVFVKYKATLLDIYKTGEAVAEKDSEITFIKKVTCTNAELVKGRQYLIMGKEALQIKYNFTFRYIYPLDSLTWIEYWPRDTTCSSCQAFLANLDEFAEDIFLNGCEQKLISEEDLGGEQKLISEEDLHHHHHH
# B1: H4H12183P2 (antibody, human IgG4, V domains shown)
# VH: QVQLQESGPALVKPSQTLSLTCTVSGGSIIRGSTYWSWVRQFPGKGLEWIGYSYYSGTAYYNPSLESRATISVDTSKNQFSLNLKSVTAADTAVYYCTREIGVAGLFDIWGQGTLVTVSS
# VL: not shown
# notes: H4H: human IgG4 Fc with S108P hinge mutation
# B2: H4H12176P2 (antibody, human IgG4, V domains shown)
# VH: EVQLVESGGGLVQPGGSLRLSCAASGFHSNRYWMDWVRQAPGKGLEWVANIKQDGSEENYVDSVKGRFTISRDNAKNSLYLQMNSLRAEDTAVYYCARDRSTSWVPYWFFDLWGRGTLVTVSS
# VL: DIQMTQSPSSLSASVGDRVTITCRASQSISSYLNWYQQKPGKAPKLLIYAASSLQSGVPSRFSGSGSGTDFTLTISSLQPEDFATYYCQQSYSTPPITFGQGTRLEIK
# notes: as for B1
# B3: H4H12168P (antibody, human IgG4, V domains shown)
# VH: QVQLVESGGGVVQPGGSLRLSCAASGFTFGGHAMHWVRQAPGKGLEWLAVISSDGSNKQYADSVKGRFTISRDNPKNTLYLQMNSLRVGDTAIYYCAKEVAPRYYYYGLDVWGQGTTVTVSS
# VL: DIQMTQSPSSLSASVGDRVTITCRASQDISNFLAWYQQKPGKVPKLLIYTASTLQSGVPSRFSGSGSGTDFTLTVSSLQPEDVATYYCQKYAGALTFGPGTKVDIK
# notes: as for B1
# B4: H4H11686N (antibody, human IgG4, V domains shown)
# VH: QVQLVESGGGLVKPGGSLRLSCAASGFTFSDYYMSWIRQAPGKGLEWVSYISSSGNTIKYADSMKGRFTISRDNAKKSLFVEMNSLRAEDTAVYYCARYKSSSDYFDHWGQGTLVTVSS
# VL: EIVLTQSPATLSLSPGERATLSCRASQSVRSYLAWYQQKPGQAPRLLIYDASNRATAIPARFSGSGSGTDFTLTISSLEPEDLAVYYCQQSGNWPLTFGGGTKVEIK
# notes: tested with H4H prefix (human IgG4 Fc with S108P hinge mutation); also called H2M11686N
# B5: H4H12169P (antibody, human IgG4, V domains shown)
# VH: EVQLVESGGGLAQPGGSLRLSCAASGFTFRSYAMSWVRQAPGKGPEWVSGIGGNGVTTYYADSVKGRFTISRDNSKNTLFLQMNSLRAEDTAVYYCVQGGLGGYFTGYWGQGTLVTVSS
# VL: DIQMTQSPSSLSASVGDRVTITCRASQSISTYLNWYQQNPGKAPKLLIFDASSLQSGVPSRFSGSGSGTDFTLTIRGLQPEDFATYYCQQSYSAPLTFGGGTKVEIK
# notes: as for B1
# Target: T2, human C5 (human, UniProt P01031 19-1676)
# Assay: cell-based or functional assay
row,Binder,"IC50, inhibition of CDC of Daudi cells, 1.66% human serum [nM]"
1,B1,1.7
2,B2,2.7
3,B3,1.5
4,B4,1.5
5,B5,1.7

# Target: T3, African green monkey C5 (African green monkey)
# Assay: cell-based or functional assay
row,Binder,"IC50, inhibition of CDC of Daudi cells, 1.66% African Green monkey serum [nM]"
1,B1,14
2,B2,3.5
3,B3,2
4,B4,4.4
5,B5,2.9

# Target: human C5 R885H-mmh (human, UniProt P01031 19-1676)
# Assay: cell-based or functional assay
row,Binder,"IC50, inhibition of CDC of Daudi cells, C5 depleted human serum and 6.6 nM C5 Variant R885H [nM]"
1,B1,1.2
2,B2,2.1
3,B3,2.3
4,B4,1.1
5,B5,1.3

# Target: human C5 R885C-mmh (human, UniProt P01031 19-1676)
# Assay: cell-based or functional assay
row,Binder,"IC50, inhibition of CDC of Daudi cells, C5 depleted human serum and 6.6 nM C5 Variant R885C [nM]"
1,B1,0.45
2,B2,1.3
3,B3,0.86
4,B4,0.45
5,B5,0.67

# Target: T2, human C5
# Assay: cell-based or functional assay
# Remark: another data set of the same source
Binder,"Human AP % Max Inhibition, hemolysis assay, NHS [%]","Human AP IC50, hemolysis assay, NHS [nM]","Human CP % Max Inhibition, hemolysis assay, NHS [%]","Human CP IC50, hemolysis assay, NHS [nM]"
B1,78.9,160,99.9,5.88
B2,69.9,16.5,94.1,4.58
B3,66.2,28.5,97.5,3.33
B4,76.2,13,97.4,3.09
B5,44.5,20,98.3,2.36

# Target: T3, African green monkey C5
# Assay: cell-based or functional assay
# Remark: another data set of the same source
Binder,"AGM AP % Max Inhibition, hemolysis assay, 5% serum [%]","AGM CP % Max Inhibition, hemolysis assay, 5% serum [%]","AGM Serum AP IC50, hemolysis assay, 5% serum [nM]","AGM Serum CP IC50, hemolysis assay, 5% serum [nM]"
B2,83.2,91,47.7,30.4
B3,88.2,90.8,22.5,28
B4,50.4,49.3,163,48.2
B5,45.7,43.3,91.5,34.4

# Target: Cynomolgus monkey C5 (cynomolgus monkey, UniProt A0A2K5U1T1 19-1676)
# Assay: cell-based or functional assay
Binder,"Cyno AP % Max Inhibition, hemolysis assay, 5% serum [%]","Cyno CP % Max Inhibition, hemolysis assay, 5% serum [%]","Cyno Serum AP IC50, hemolysis assay, 5% serum [nM]","Cyno Serum CP IC50, hemolysis assay, 5% serum [nM]"
B1,100,64.6,29.6,142
B2,99.3,97.5,7.7,14.7
B3,99.7,99,5.45,10.3
B4,98.7,94.5,9,14.1
B5,96.3,92.8,7.95,19.9

# Target: T2, human C5
# Assay: SPR (Biacore), mAb captured, dissociation of human C5 at pH7.4 vs pH6.0, 37°C
# Protocol: Effect of pH on the rate of dissociation of recombinant human C5 bound to purified anti-C5 monoclonal antibodies was determined using a real-time surface plasmon resonance biosensor using a Biacore T200 instrument. The Biacore sensor surface was first derivatized by amine coupling with a monoclonal mouse anti-human Fc antibody (GE, # BR-1008-39) to capture anti-C5 monoclonal antibodies expressed with human IgG4 Fc. All Biacore binding studies were performed using two running buffers PBS-T, pH7.4 (0.01M Na₂HPO₄/NaH₂PO₄, 0.15M NaCl, 0.05% v/v Tween-20, adjusted to pH7.4) and PBS-T, pH6.0 (0.01M Na₂HPO₄/NaH₂PO₄, 0.15M NaCl, 0.05% v/v Tween-20, adjusted to pH6.0). […] Binding dissociative half-lives (t %) were calculated from kd as: […]
row,Binder,t½ Ratio pH7.4/pH6.0
1,B2,≤ 0.4
2,B3,1
3,B4,0.8

# Target: T1, monkey C5-mmh
# Assay: SPR (Biacore), mAb captured, dissociation of monkey C5 at pH7.4 vs pH6.0, 25°C
row,Binder,t½ Ratio pH7.4/pH6.0
1,B1,5.8
2,B2,≤ 9.1
3,B3,3.8
4,B4,0.37
5,B5,3.4

# Target: T1, monkey C5-mmh
# Assay: SPR (Biacore), mAb captured, dissociation of monkey C5 at pH7.4 vs pH6.0, 37°C
row,Binder,t½ Ratio pH7.4/pH6.0
1,B1,2.4
2,B2,2.8
3,B3,4
4,B4,0.5
5,B5,2
